Reference: publication PMC12292289, “Identification of a Novel Antibacterial Function of Mammalian Calreticulin” (Biomolecules, 2025)
Values belong to the molecule of their own block, whether it stands above or below them.

Legend:
[1] = molecular target: recombinant goat calreticulin (Capra hircus (goat)); assay: SEC; SEC-HPLC of the purified recombinant protein; retention time compared with that of standards (Figure S1)
[2] = molecular target: the molecule itself; assay: as above

- stoichiometry N [1]: 2
Molecule: recombinant goat calreticulin (natural protein)

B1: recombinant human calreticulin (natural protein, UniProt P27797 18-417, looked up)
chain: EPAVYFKEQFLDGDGWTSRWIESKHKSDFGKFVLSSGKFYGDEEKDKGLQTSQDARFYALSASFEPFSNKGQTLVVQFTVKHEQNIDCGGGYVKLFPNSLDQTDMHGDSEYNIMFGPDICGPGTKKVHVIFNYKGKNVLINKDIRCKDDEFTHLYTLIVRPDNTYEVKIDNSQVESGSLEDDWDFLPPKKIKDPDASKPEDWDERAKIDDPTDSKPEDWDKPEHIPDPDAKKPEDWDEEMDGEWEPPVIQNPEYKGEWKPRQIDNPDYKGTWIHPEIDNPEYSPDPSIYAYDNFGVLGLDLWQVKSGTIFDNFLITNDEAYAEEFGNETWGVTKAAEKQMKDKQDEEQRLKEEEEDKKRKEEEEAEDKEDDEDKDEDEEDEEDKEEDEEEDVPGQAKDEL
notes: calreticulin, human; bought recombinant protein (Sino Biological, P27797); P27797 is printed where the reagent list gives catalogue numbers; also called recombinant human calreticulin expressed in HEK293 cells; source: bought: Sino Biological; expressed in HEK293 cells
- stoichiometry N [2]: 2
